Data: paper PMC7854685, “Histone Parylation factor 1 contributes to the inhibition of PARP1 by cancer drugs” (Nature Communications, 2021)

Experiments:
[1] = target: T1, Poly-(ADP-ribose) polymerase 1 (PARP1), wild type, labelled with Alexa488, bound to p18mer DNA (UniProt P09874 1-1014, Alexa488 C4 maleimide label (extent of labeling typically 50-100%)); experiment: FRET or BRET; as a3 but with olaparib (1 uM): Alexa647-HPF1 titrated into Alexa488-PARP1 (0.2 uM) premixed with p18mer DNA (0.2 uM) and olaparib; binding buffer; details: both partners purified
T1 construct: Poly-(ADP-ribose) polymerase 1 (PARP1), wild type; In the assay premixed with p18mer double-stranded DNA (0.2 uM); the DNA is no protein chain; also called PARP1 - p18mer complex; 488-labeled PARP1
T1 sequence (P09874 whole entry): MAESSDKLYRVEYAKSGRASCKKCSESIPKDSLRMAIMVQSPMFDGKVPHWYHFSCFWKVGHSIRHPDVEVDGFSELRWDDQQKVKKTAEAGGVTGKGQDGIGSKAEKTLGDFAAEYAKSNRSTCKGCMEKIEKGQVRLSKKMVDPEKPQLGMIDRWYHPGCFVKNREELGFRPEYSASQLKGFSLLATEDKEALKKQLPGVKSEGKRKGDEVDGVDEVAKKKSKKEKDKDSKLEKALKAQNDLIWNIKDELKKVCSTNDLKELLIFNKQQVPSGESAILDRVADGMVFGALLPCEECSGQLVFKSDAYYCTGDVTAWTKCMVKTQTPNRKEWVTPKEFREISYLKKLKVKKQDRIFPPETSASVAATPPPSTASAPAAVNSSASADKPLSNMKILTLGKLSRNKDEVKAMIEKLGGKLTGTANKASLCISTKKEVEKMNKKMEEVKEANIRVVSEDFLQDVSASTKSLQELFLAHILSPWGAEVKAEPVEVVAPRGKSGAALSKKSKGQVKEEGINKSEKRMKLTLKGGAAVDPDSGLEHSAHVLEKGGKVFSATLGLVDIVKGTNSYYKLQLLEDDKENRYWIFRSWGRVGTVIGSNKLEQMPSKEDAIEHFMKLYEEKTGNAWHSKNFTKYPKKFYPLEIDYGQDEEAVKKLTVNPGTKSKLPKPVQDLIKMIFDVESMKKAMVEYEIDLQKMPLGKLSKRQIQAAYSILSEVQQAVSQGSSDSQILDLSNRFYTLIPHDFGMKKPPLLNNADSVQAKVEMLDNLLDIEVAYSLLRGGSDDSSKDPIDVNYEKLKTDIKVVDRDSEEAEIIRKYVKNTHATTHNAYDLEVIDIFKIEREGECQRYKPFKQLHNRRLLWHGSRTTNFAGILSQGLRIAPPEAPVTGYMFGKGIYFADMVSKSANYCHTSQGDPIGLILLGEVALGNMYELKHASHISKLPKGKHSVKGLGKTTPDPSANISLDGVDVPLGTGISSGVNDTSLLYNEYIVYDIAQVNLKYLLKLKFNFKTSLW

[2] = target: T1, Poly-(ADP-ribose) polymerase 1 (PARP1), …; experiment: FRET or BRET; Alexa647-HPF1 (0.6-10,000 nM) titrated into Alexa488-PARP1 (0.2 uM) premixed with p18mer DNA (0.2 uM) and DMSO (control, no olaparib); binding buffer 50 mM Tris-HCl pH 8.0, 50 mM NaCl, 1 mM MgCl2, 0.1 mM EDTA, 0.01% IGEPAL; details: both partners purified

B1: Histone PARylation factor 1 (HPF1), labelled with Alexa647 (natural protein)
chain: LRKEVENHYKLSLPEDFYHFWKFCEELDPEKPSDSLSASLGLQLVGPYDILAGKHKTKKKSTGLNFNLHWRFYYDPPEFQTIIIGDNKTQYHMGYFRDSPDEFPVYVGINEAKKNCIIVPNGDNVFAAVKLFLTKKLREITDKKKINLLKNIDEKLTEAARELGYSLEQRTVKMKQRDKKVVTKTFHGAGLVVPVDKNDVGYRELPETDADLKRICKTIVEAASDEERLKAFAPIQEMMTFVQFANDECDYGMGLELGMDLFCYGSHYFHKVAGQLLPLAYNLLKRNLFAEIIEEHLANRSQENIDQLAA
modifications: Alexa647 C2 maleimide label (extent of labeling typically 50-100%)
notes: Histone PARylation factor 1 (HPF1); also called wild-type protein
Kd [1]: 1200 nM
Kd [2]: 3800 nM
